Results from US20220002732A1, “INHIBIN AS TARGETABLE REGULATORS OF ANGIOGENESIS” (UNIVERSITY OF SOUTH CAROLINA, priority 2016, published 2022).

What was measured:
[1] = system: TGF-β receptor serine threonine kinases (ALK1-7); assay: Panel of small molecule ALK inhibitors: inhibin-induced signaling and angiogenesis; format: cell-based; details: preliminary screen of ALK inhibitors
Description: The inhibin-α activation of the SMAD1/5 pathway was also examined to determine which receptor type is required. TGF-β receptor serine threonine kinases (ALK1-7) are used by other TGF-β ligands. Testing was done to determine which Type I receptor is utilized by inhibin by using a panel of small molecule inhibitors as a preliminary screen for different ALKs. […] Similarly, three type II receptors are expressed in cells: TBRII, ACTRII and BMPRII.

HMvEC-1 cells = assay: Three-dimensional capillary sprouting and tube formation (number of meshes); format: cell-based, human
Procedure: FIG. 25 illustrates three-dimensional capillary sprouting and tube formation of HMvEC-1 cells in the presence of conditioned media (CM) from shControl SKOV3 cancer cells or CM from shINHA SKOV3 cancer cells (top), in the presence of CM from shControl SKOV3 cells in the presence of 10 μg/ml IgG or anti-inhibin-α (middle), and in the presence of CM from shControl treated with (+) or without (−) 300 pM recombinant Inhibin A alone and anti-inhibin-α antibody (10 μg/ml) (bottom). The bar graphs represent the average number of meshes quantified and represent duplicate trials. […] (Bar graphs show mean±SEM, ***P<0.001 and **P<0.01 (n=3), Student's t-test. Scale Bar=500 μm.)
Other TGF-β members have been reported to have effects on angiogenesis. FIG. 26 illustrates side-by-side comparison of angiogenesis results for HMvEC-1 cells treated as indicated with other TGF-β members (activin A, BMP9, TGFβ1) either alone or in the presence of inhibin-α. The robust effect of inhibin on angiogenesis can be seen. The bar graph represents quantitation of number of meshes.
FIG. 27 illustrates the capillary sprouting and tube formation of multiple endothelial cell types (HUVEC, HMvEC, MEEC) upon treatment with 300 pM inhibin-α for 16 hours and the broad effect of inhibin on angiogenesis in different cell types. The graphs represent the number of meshes, branches, and nodes quantified. (Bar graphs show mean±SEM, ***P<0.001 and **P<0.01 (n=3), Student's t-test. Scale Bar=500 μm.)
FIG. 32 illustrates three-dimensional capillary sprouting and tube formation of HMvEC-1 cells in the presence or absence of recombinant inhibin-α (300 pM) either untreated or pretreated with 100 μg/ml TRC105 for 30 minutes prior to inhibin-α treatment (left, scale bar=500 μm). Average number meshes/field was quantified 16 h after treatment and presented in the bar graph (middle). Minimum of 3 fields were counted and data represent duplicate trials. Western blotting for SMAD1/5 phosphorylation is shown (right) in response to 20 pM inhibin-α for up to 60 minutes.
FIG. 34 illustrates capillary sprouting and tube formation (left) in HMvEC-1 cells in response to inhibin-α in the absence and presence of 5 μM of TRC105 added 30 minutes prior to treatment with inhibin-α. The bar graph on the right represents the number of meshes quantified.

SMAD2/3 = assay: Western blot for SMAD2/3 activation in endothelial cells (HMvEC-1, MEEC); format: cell-based, human, mouse
ERK1/2 = assay: Western blot for MAPK pathway ERK1/2 activation in endothelial cells (MEEC); format: cell-based, mouse; details: time course
Procedure: (§1) Mouse Embryonic Endothelial Cells (MEEC) and Human Microvascular Endothelial Cells (HMvEC-1) were examined to determine the effect of inhibin-α on SMAD1/5 activation and on MAPK pathway activation, and specifically, on ERK1/2 activation. GAPDH or B-actin was used as control. Cells were incubated with 20 pM inhibin-α and examined over a time course of 60 minutes and also examined following 30-minute incubation over a dose course from 0 to 100 pM inhibin-α. Western blot results are shown of the HMvEC-1 (FIG. 17) and MEEC (FIG. 18). FIG. 19 presents the Western blot time course results following incubation of MEEC with inhibin-α for ERK1/2 activation. FIG. 20 presents image results from staining (Psmad1/5, DAP, and merged images) for HMvEC-1 cells (left) and MEEC cells (right) following incubation in inhibin-α or untreated (UT).

SMAD1/5 = assay: Western blot and staining for SMAD1/5 activation in endothelial cells (HMvEC-1, MEEC); format: cell-based, human, mouse
Procedure: as §1
To determine if inhibin secreted by ovarian cancer cells activates the SMAD1/5 pathway in endothelial cells, conditioned media were obtained from stable cell lines that were generated from SKOV3 cells and OVCA420 cells with short hairpin RNA either as a control (with no effective sequence) (shControl), or directed at inhibin-α (shINHA), or stable unmodified SKOV3 cells. HMvEC-1 cells were then incubated in one of the conditioned media, as schematically illustrated in FIG. 22.

Molecule: NC(=O)c1ccc(-c2nc(-c3ccc4c(c3)OCO4)c(-c3ccccn3)[nH]2)cc1 [SB431542]
- suppression of inhibin-induced signaling and angiogenesis [1]: not ALK3/6 or ALK5/4/7 (SB431542), suppressed

B1: TRCN105: humanized antibody to endoglin in clinical trials (antibody, chains of the INN, looked up, V domains shown)
VH: EVKLEESGGGLVQPGGSMKLSCAASGFTFSDAWMDWVRQSPEKGLEWVAEIRSKASNHATYYAESVKGRFTISRDDSKSSVYLQMNSLRAEDTGIYYCTRWRRFFDSWGQGTTLTVSS
VL: QIVLSQSPAILSASPGEKVTMTCRASSSVSYMHWYQQKPGSSPKPWIYATSNLASGVPVRFSGSGSGTSYSLTISRVEAEDAATYYCQQWSSNPLTFGAGTKLELK
- inhibin-α-induced angiogenesis on loss or block of endoglin or ALK1 (HMvEC-1 cells; endothelial cells with or without recombinant inhibin-α): inhibin does not induce angiogenesis

B2: recombinant Inhibin: recombinant Inhibin A, αβA heterodimer, used at 300 pM (protein, UniProt P05111 233-366; P08476 311-426, looked up)
Inhibin alpha chain: STPLMSWPWSPSALRLLQRPPEEPAAHANCHRVALNISFQELGWERWIVYPPSFIFHYCHGGCGLHIPPNLSLPVPGAPPTPAQPYSLLPGAQPCCAALPGTMRPLHVRTTSDGGYSFKYETVPNLLTQHCACI
Inhibin beta A chain: GLECDGKVNICCKKQFFVSFKDIGWNDWIIAPSGYHANYCEGECPSHIAGTSGSSLSFHSTVINHYRMRGHSPFANLKSCCVPTKLRPMSMLYYDDGQNIIKKDIQNMIVEECGCS
- endothelial cell angiogenesis induced by tumor cell-produced inhibin (number of meshes) (HMvEC-1 cells; HMvEC-1, CM from shControl SKOV3, antibody 10 μg/ml, recombinant Inhibin A 300 pM): can be recapitulated

B3: inhibin-α: α-subunit of inhibin, critical for the functionality of dimeric inhibin (both A and B) (protein, UniProt P05111 233-366, looked up)
Inhibin alpha chain: STPLMSWPWSPSALRLLQRPPEEPAAHANCHRVALNISFQELGWERWIVYPPSFIFHYCHGGCGLHIPPNLSLPVPGAPPTPAQPYSLLPGAQPCCAALPGTMRPLHVRTTSDGGYSFKYETVPNLLTQHCACI
- SMAD2/3 activation (SMAD2/3): not equally an activator
- ERK1/2 activation (ERK1/2): robust activator
- angiogenesis (number of meshes), side-by-side with other TGF-β members (HMvEC-1 cells; HMvEC-1, compared with activin A, BMP9, TGFβ1): robust effect
- capillary sprouting and tube formation in multiple endothelial cell types (HMvEC-1 cells; HUVEC, HMvEC, MEEC, 300 pM, 16 hours): broad effect
- SMAD1/5 pathway activation by cancer cell conditioned media (SMAD1/5; HMvEC-1 cells in conditioned media of shControl or shINHA SKOV3/OVCA420 cells): activates the SMAD1/5 pathway in endothelial cells in a paracrine manner
- SMAD1/5 activation (SMAD1/5; endothelial cells, 20 pM over 60 minutes, 0 to 100 pM for 30 minutes): robust activator
